Substitutions are numbered along the chain they refer to.
T1: mouse MAdCAM expressed on cells (mouse, UniProt Q61826 22-405)
T1 construct: whole, on cells
T1 sequence (looked up): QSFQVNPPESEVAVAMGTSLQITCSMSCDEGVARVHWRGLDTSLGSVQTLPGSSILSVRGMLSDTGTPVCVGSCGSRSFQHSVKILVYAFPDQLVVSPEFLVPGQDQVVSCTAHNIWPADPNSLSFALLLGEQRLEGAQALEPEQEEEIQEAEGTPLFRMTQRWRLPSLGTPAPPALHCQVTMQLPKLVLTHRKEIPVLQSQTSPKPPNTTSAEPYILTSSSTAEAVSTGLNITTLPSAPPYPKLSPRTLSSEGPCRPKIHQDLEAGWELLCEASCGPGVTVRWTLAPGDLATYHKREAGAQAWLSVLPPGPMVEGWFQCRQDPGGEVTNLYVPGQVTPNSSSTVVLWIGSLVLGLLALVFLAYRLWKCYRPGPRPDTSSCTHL

B1: MAdCAM antibody Clone ID 66 of Table 7 (IgG) (antibody, V domains shown)
VH: QVQLVQSGAEVKKPGASVKVSCKASGYTFTGHYMHWVRQAPGQGLEWMGIINPSGGSTSYAQKFQGRVTMTRDTSTSTVYMELSSLRSEDTAVYYCARDGAWFGEEYYYGMDVWGQGTTVTVSS
VL: DIQMTQSPSSLSASVGDRVTITCRASQGISNWLAWYQQKPGKAPKLLIYDASNLETGVPSRFSGSGSGTDFTLTISSLQPEDFATYYCQQYYSFPLYTFGQGTKVEIK
notes: IgG format
B2: MAdCAM antibody Clone ID 9 of Table 7 (IgG) (antibody, V domains shown)
VH: QVQLVQSGAEVKKPGASVKVSCKASGYTFTSYYMHWVRQAPGQGLEWMGIINHSGGSTSYAQKFQGRVTMTRDTSTSTVYMELSSLRSEDTAVYYCARPYSGWYFAFDIWGQGTLVTVSS
VL: not shown
notes: IgG format
B3: MAdCAM antibody Clone ID 54 of Table 7 (IgG) (antibody, V domains shown)
VH: QVQLVQSGAEVKKPGSSVKVSCKASGGTLSRYGVSWVRQAPGQGLEWMGGIIPIFGTTNYAQKFQGRVTITADESTSTAYMELSSLRSEDTAVYYCARDRVYYDSSGYPTWYFDLWGRGTLVTVSS
VL: EIVMTQSPATLSVSPGERATLSCRASQSVSSSYLAWYQQKPGQAPRLLIYGASTRATGIPARFSGSGSGTEFTLTISSLQSEDFAVYYCQQYGSSPITFGQGTKVEIK
notes: IgG format
B4: MAdCAM antibody Clone ID 68 of Table 7 (IgG) (antibody, V domains shown)
VH: EVQLLESGGGLVQPGGSLRLSCAASGFTFGDYAMSWVRQAPGKGLEWVAVVSYDGTNKYYADSVKGRFTISRDNSKNTLYLQMNSLRAEDTAVYYCAKDICSSTSCYFDLWGRGTLVTVSS
VL: DIQMTQSPSSLSASVGDRVTITCRASQNINNYVNWYQQKPGKAPKLLIYDASNLETGVPSRFSGSGSGTDFTLTISSLQPEDFATYYCQQANSFPPTFGQGTRLEIK
notes: IgG format
B5: MAdCAM antibody Clone ID 35 of Table 7 (IgG) (antibody, V domains shown)
VH: QVQLVQSGAEVKKPGASVKVSCKASGYTFTGYYIHWVRQAPGQGLEWMGWMNPNSGNTGYAQKFQGRVTMTRDTSTSTVYMELSSLRSEDTAVYYCARDPGFLGYSSGGSSYDGWFDPWGQGTLVTVSS
VL: DIQMTQSPSSLSASVGDRVTITCRASQSISSYLHWYQQKPGKAPKLLIYAASSLQSGVPSRFSGSGSGTDFTLTISSLQPEDFATYYCQQSYTAPYTFGQGTKLEIK
notes: IgG format
B6: MAdCAM antibody Clone ID 67 of Table 7 (IgG) (antibody, V domains shown)
VH: QVQLVQSGAEVKKPGASVKVSCKASGYTFTGYYMHWVRQAPGQGLEWMGMIYPRDGSTSYAQKFQGRVTMTRDTSTSTVYMELSSLRSEDTAVYYCAMTGWGYGMDVWGKGTTVTVSS
VL: B5 VL with S28G, S30N, S31N, H34A, A50D, S53T, T93S, Y96P
notes: IgG format
B7: MAdCAM antibody Clone ID 69 of Table 7 (IgG) (antibody, V domains shown)
VH: QVQLVQSGAEVKKPGASVKVSCKASGYTFTSYYMHWVRQAPGQGLEWMGIIDPSGGSTSYAQKFQGRVTMTRDTSTSTVYMELSSLRSEDTAVYYCAREEWSSGGVGYFDYWGQGTLVTVSS
VL: B5 VL with S28G, H34A, A51T, S56T, S91T, T93S, A94I, Y96I, K103R
notes: IgG format
B8: MAdCAM antibody Clone ID 32 of Table 7 (IgG) (antibody, V domains shown)
VH: QVQLVQSGAEVKKPGASVKVSCKASGYTLTTWYMYWVRQAPGQGLEWMGWINPNRGATNYAQKFQGRVTMTRDTSTSTVYMELSSLRSEDTAVYYCAKGDLWGAMDVWGQGTLVTVSS
VL: B5 VL with Q27D, S28N, S30G, Y32W, H34A, S91G, T93S, A94T, Y96P, L104V
notes: IgG format
B9: MAdCAM antibody Clone ID 56 of Table 7 (IgG) (antibody, V domains shown)
VH: EVQLVESGGGLVKPGGSLRLSCAASGFTFSSYWMSWVRQAPGKGLEWVSAIGTGGGTYYAAPVKGRFTISRDDSKNTLYLQMNSLKTEDTAVYYCAREWLVPYYGMDVWGQGTTVTVSS
VL: B5 VL with S31R, Y32W, H34A, A50G, S53N, T93S, A94T, Y96W, L104V
notes: IgG format
B10: MAdCAM antibody Clone ID 12 of Table 7 (IgG) (antibody, V domains shown)
VH: B8 VH
VL: B5 VL with Q27D, S28N, S30G, Y32W, H34A, S91G, T93S, A94T, Y96P, L104V
notes: IgG format
B11: MAdCAM antibody Clone ID 53 of Table 7 (IgG) (antibody, V domains shown)
VH: QVQLVQSGAEVKKPGASVKVSCKASGYTFTSYYMHWVRQAPGQGLEWMGWMNPNSGNTGYAQKFQGRVTMTRDTSTSTVYMELSSLRSEDTAVYYCAREGLGYCTNGVCWNYYGMDVWGQGTLVTVSS
VL: B5 VL with S28G, Y32W, H34A, A50G, T93S, A94T, L104V
notes: IgG format
B12: MAdCAM antibody Clone ID 70 of Table 7 (IgG) (antibody, V domains shown)
VH: QVQLVQSGAEVKKPGASVKVSCKASGYPFTDYYMHWVRQAPGQGLEWMGWIKPNSGDTEYAQKFQGRVTMTRDTSTSTVYMELSSLRSEDTAVYYCARDRFVGKPDYYYYGMDVWGQGTMVTVSS
VL: B5 VL with S31V, Y32W, H34A, T93D, A94T
notes: IgG format
B13: MAdCAM antibody Clone ID 71 of Table 7 (IgG) (antibody, V domains shown)
VH: QVQLVQSGAEVKKPGASVKVSCKASGYTFTSYYMHWVRQAPGQGLEWMGIINPSGGSTSYAQKFQGRVTMTRDTSTSTVYMELSSLRSEDTAVYYCARDSVAGTGGRYYGMDVWGQGTLVTVSS
VL: B5 VL with S28G, S31N, L33F, H34A, S56G, T93S, A94L
notes: IgG format
B14: MAdCAM antibody Clone ID 40 of Table 7 (IgG) (antibody, V domains shown)
VH: B8 VH
VL: B5 VL with Q27D, S28N, S30G, Y32W, H34A, S91G, T93S, A94T, Y96P, L104V
notes: IgG format
B15: MAdCAM antibody Clone ID 72 of Table 7 (IgG) (antibody, V domains shown)
VH: QVQLVQSGAEVKKPGASVKVSCKASGYTFTSYYMHWVRQAPGQGLEWMGVINPIGGTTTYAQKFQGRVTMTRDTSTSTVYMELSSLRSEDTAVYYCASGAPSYYYYGMDVWGQGTLVTVSS
VL: B5 VL with H34N, A50G, A51T, S53Y, Q55A, S56T, T93S, A94T, Y96L, L104V
notes: IgG format
B16: MAdCAM antibody Clone ID 33 of Table 7 (IgG) (antibody, V domains shown)
VH: B8 VH with L113T
VL: B5 VL with Q27D, S28N, S30G, Y32W, H34A, S91G, T93S, A94T, Y96P, L104V
notes: IgG format
B17: MAdCAM antibody Clone ID 45 of Table 7 (IgG) (antibody, V domains shown)
VH: EVQLVESGGGLVKPGGSLRLSCAASGFTFGDYAMSWVRQAPGKGLEWVSYISGDIGYTNYAAPVKGRFTISRDDSKNTLYLQMNSLKTEDTAVYYCARDVAATGNWYFDLWGRGTLVTVSS
VL: not shown
notes: IgG format
B18: MAdCAM antibody Clone ID 62 of Table 7 (IgG) (antibody, V domains shown)
VH: QVQLVQSGAEVKKPGASVKVSCKASGYTFTSYDINWVRQAPGQGLEWMGWINPNSGTTGYAQKFQGRVTMTRDTSTSTVYMELSSLRSEDTAVYYCARSPYYYYGMDVWGQGTTVTVSS
VL: DIQMTQSPSSLSASVGDRVTITCRASHFISRWVAWYQQKPGKAPKLLIYAASTLQSGVPSRFSGSGSGTDFTLTISSLQPEDFATYYCQQSYSGISFGPGTKVDIK
notes: IgG format
B19: MAdCAM antibody Clone ID 63 of Table 7 (IgG) (antibody, V domains shown)
VH: EVQLLESGGGLVQPGGSLRLSCAASGFTFNNYGMNWVRQAPGKGLEWVSRINSDGSSTSYADSVKGRFTISRDNSKNTLYLQMNSLRAEDTAVYYCARGAYYYYYMDVWGQGTLVTVSS
VL: EIVMTQSPATLSVSPGERATLSCRASQSVSGSYLAWYQQKPGQAPRLLIYATSSRASGIPARFSGSGSGTEFTLTISSLQSEDFAVYYCQQYYSGLTFGQGTKVEIK
notes: IgG format
B20: MAdCAM antibody Clone ID 26 of Table 7 (IgG) (antibody, V domains shown)
VH: EVQLLESGGGLVQPGGSLRLSCAASGFTFSSYAMSWVRQAPGKGLEWVSYISSSSTYTNYADSVKGRFTISRDNSKNTLYLQMNSLRAEDTAVYYCARANSSSWYDWYFDLWGQGTLVTVSS
VL: not shown
notes: IgG format
B21: MAdCAM antibody Clone ID 55 of Table 7 (IgG) (antibody, V domains shown)
VH: EVQLLESGGGLVQPGGSLRLSCAASGFTFDDFAMHWVRQAPGKGLEWVSGISGNGDSRYYADSVKGRFTISRDNSKNTLYLQMNSLRAEDTAVYYCARDASYGGNYGMDVWGQGTTVTVSS
VL: DIQMTQSPSSLSASVGDRVTITCQASQDIRNYLNWYQQKPGKAPKLLIYKASTLESGVPSRFSGSGSGTDFTLTISSLQPEDFATYYCQQANSFPLTFGPGTKVDIK
notes: IgG format
B22: MAdCAM antibody Clone ID 64 of Table 7 (IgG) (antibody, V domains shown)
VH: EVQLLESGGGLVQPGGSLRLSCAASGFTFSNSDMNWVRQAPGKGLEWVAHIWNDGSQKYYADSVKGRFTISRDNSKNTLYLQMNSLRAEDTAVYYCARDRTDPGYSSAMDVWGQGTTVTVSS
VL: B21 VL with Q24R, N34G, K50D, T53S, S56T, N92T, F94L, P100G, D105E
notes: IgG format
B23: MAdCAM antibody Clone ID 80 of Table 7 (IgG) (antibody, V domains shown)
VH: EVQLLESGGGLVQPGGSLRLSCAASGFTFDDYAMHWVRQAPGKGLEWVSAISGSGGSTYYADSVKGRFTISRDNSKNTLYLQMNSLRAEDTAVYYCAKDLGVVVPAALDYWGQGTTVTVSS
VL: B21 VL with R30S, Y32H, K50D, T53N, S56A, A91S, N92Y, F94T, P100G, D105E
notes: IgG format
B24: MAdCAM antibody Clone ID 73 of Table 7 (IgG) (antibody, V domains shown)
VH: QVQLVQSGAEVKKPGASVKVSCKASGYTFTSNYVHWVRQAPGQGLEWMGRINPHSGDTSYAQKFQGRVTMTRDTSTSTVYMELSSLRSEDTAVYYCARAGQLWSDWYFDLWGRGTLVTVSS
VL: B21 VL with K50A, S52T, T53A, E55R, S56T, A91S, N92Y, F94H, P100Q, D105E
notes: IgG format
B25: MAdCAM antibody Clone ID 61 of Table 7 (IgG) (antibody, V domains shown)
VH: QVQLVQSGAEVKKPGASVKVSCKASGDTFTGYYIHWVRQAPGQGLEWMGWINPNSGGTNYAQKFQGRVTMTRDTSTSTVYMELSSLRSEDTAVYYCARSGLWLGSYYGMDVWGQGTLVTVSS
VL: DIQMTQSPSSLSASVGDRVTITCRASQTISIWLAWYQQKPGKAPKLLIYDASTLQSGVPSRFSGSGSGTDFTLTISSLQPEDFATYYCQQYSSYPLTFGQGTKVEIK
notes: IgG format

Each binder was assayed against T1, mouse MAdCAM expressed on cells (assay: cell binding).

| Binder | binding result |
| --- | --- |
| B1 | no binding |
| B2 | no binding |
| B3 | no binding |
| B4 | no binding |
| B5 | no binding |
| B6 | no binding |
| B7 | no binding |
| B8 | no binding |
| B9 | no binding |
| B10 | no binding |
| B11 | no binding |
| B12 | no binding |
| B13 | no binding |
| B14 | no binding |
| B15 | no binding |
| B16 | no binding |
| B17 | no binding |
| B18 | no binding |
| B19 | no binding |
| B20 | no binding |
| B21 | no binding |
| B22 | no binding |
| B23 | no binding |
| B24 | no binding |
| B25 | no binding |

From patent publication US20200392228A1 (PANDION OPERATIONS, published 2020)
